Results published in patent US20200147199A1.

Tests used:
Assay in all cases: SPR
Human FcRn = target: Human FcRn
Human FcγRIIIaV158 = target: Human FcγRIIIaV158
Human FcγRIIaH131 = target: Human FcγRIIaH131
Human FcγRIIb = target: Human FcγRIIb
NHP FcγRIII = target: NHP FcγRIII
NHP FcγRIIa = target: NHP FcγRIIa
NHP FcγRIIb = target: NHP FcγRIIb

Substance | Kd (Human FcRn) | Kd (Human FcγRIIIaV158) | Kd (Human FcγRIIaH131) | Kd (Human FcγRIIb) | Kd (NHP FcγRIII) | Kd (NHP FcγRIIa) | Kd (NHP FcγRIIb)
GRLR | 22.4 nM |  |  |  |  |  | 
LS | 4.76 nM | 233 nM | 2090 nM | 6380 nM | 424 nM | 7970 nM | 2690 nM
